This is an account of results in patent US20240327544A1 (BIONTECH, published 2024).

For experiment [1], the target named is human PD-1, full-length, expressed on cells (human, UniProt Q15116 25-288). Nature of the experiment: cell-based or functional assay.
Experiment [2] deals with T1, C1q (complement protein C1q from human serum) (human, UniProt P02745 23-245; P02746 28-253; P02747 29-245).
T1 construct: Human serum (20%) was the source of C1q
Nature of the experiment: flow cytometry, activated human CD8+ T cells, FITC anti-C1q. A general note: Flow cytometry measures light scatter and fluorescence of single cells or particles in a stream.

“And” between values parts separate entries of the source, which are not always exact repeats. Equal entries are not always repeated.

Sequence of human PD-1, full-length, expressed on cells (Q15116 25-288 limits assumed): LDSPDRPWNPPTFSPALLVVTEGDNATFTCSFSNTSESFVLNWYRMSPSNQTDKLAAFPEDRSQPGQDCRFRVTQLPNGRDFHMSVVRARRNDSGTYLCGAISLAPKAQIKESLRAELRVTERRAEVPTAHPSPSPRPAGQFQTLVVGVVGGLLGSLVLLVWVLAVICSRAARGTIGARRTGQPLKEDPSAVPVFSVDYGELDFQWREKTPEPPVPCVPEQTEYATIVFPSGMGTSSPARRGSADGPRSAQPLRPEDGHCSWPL
T1 sequence (P02745 23-245 limits assumed, chain 1 of 3): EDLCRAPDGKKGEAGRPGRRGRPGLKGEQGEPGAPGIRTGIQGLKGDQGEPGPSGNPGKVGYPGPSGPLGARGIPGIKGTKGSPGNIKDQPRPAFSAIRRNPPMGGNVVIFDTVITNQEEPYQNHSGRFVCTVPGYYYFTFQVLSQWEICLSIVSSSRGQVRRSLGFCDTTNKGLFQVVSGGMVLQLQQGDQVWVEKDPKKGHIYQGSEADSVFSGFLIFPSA
T1 sequence (P02746 28-253 limits assumed, chain 2 of 3): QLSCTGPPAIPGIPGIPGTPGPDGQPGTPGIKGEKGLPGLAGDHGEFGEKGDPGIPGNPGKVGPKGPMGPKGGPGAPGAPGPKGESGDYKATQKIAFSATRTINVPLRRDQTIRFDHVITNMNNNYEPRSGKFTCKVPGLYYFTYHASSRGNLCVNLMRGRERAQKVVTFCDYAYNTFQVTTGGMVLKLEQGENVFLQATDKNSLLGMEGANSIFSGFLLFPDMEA
T1 sequence (P02747 29-245 limits assumed, chain 3 of 3): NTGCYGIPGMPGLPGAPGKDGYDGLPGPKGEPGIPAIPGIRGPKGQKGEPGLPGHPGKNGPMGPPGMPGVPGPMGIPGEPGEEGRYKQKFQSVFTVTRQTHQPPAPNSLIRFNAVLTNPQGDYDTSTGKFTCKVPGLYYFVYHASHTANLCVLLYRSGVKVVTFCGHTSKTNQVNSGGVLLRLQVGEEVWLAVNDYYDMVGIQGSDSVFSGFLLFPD

B1: IgG1-PD1 (antibody)
heavy: QVQLVESGGGLVQPGTSLRLSCSVSGFSLYSYNMGWVRQAPGKGLEYIGIISGGTIGHYASWAKGRFTISRDTSKTTLYLQMNSLTTEDTATYFCARAFYDDYDYNVWGPGTLVTVSSASTKGPSVFPLAPSSKSTSGGTAALGCLVKDYFPEPVTVSWNSGALTSGVHTFPAVLQSSGLYSLSSVVTVPSSSLGTQTYICNVNHKPSNTKVDKRVEPKSCDKTHTCPPCPAPEFERGPSVFLFPPKPKDTLMISRTPEVTCVVVDVSHEDPEVKFNWYVDGVEVHNAKTKPREEQYNSTYRVVSVLTVLHQDWLNGKEYKCKVSNKALPAPIEKTISKAKGQPREPQVYTLPPSREEMTKNQVSLTCLVKGFYPSDIAVEWESNGQPENNYKTTPPVLDSDGSFFLYSKLTVDKSRWQQGNVFSCSVMHEALHNHYTQKSLSLSPG
light: AIQLTQSPSSLSASVGGTVTITCQSSQSVYGNNQLSWYQQKPGQPPKLLIYQASKLETGVPSRFRGSGSGTQFTLTISSLQSEDFATYYCAGGYSSSSDTTFGGGTEVVVKRTVAAPSVFIFPPSDEQLKSGTASVVCLLNNFYPREAKVQWKVDNALQSGNSQESVTEQDSKDSTYSLSSTLTLSKADYEKHKVYACEVTHQGLSSPVTKSFNRGEC
notes: Humanized rabbit anti-PD-1 antibody, Fc-inert IgG1 kappa; also called MAB-19-0618 variable regions in a human IgG1m(f) L234F/L235E/G236R (FER) backbone
For B1, in experiment [1], the “EC50 of PD-1/PD-L1 checkpoint blockade (luminescence, PD-1/PD-L1 blockade reporter assay)” value is 0.165 µg/mL and 1.12 nM. Also, the binding result in experiment [2] is reported as “no binding (tested: antibody up to 30 µg/mL, 20% human serum)”.
